The text below walks through data of US20250074949A1 (BRIGHAM AND WOMEN S HOSPITAL, published 2025).

The target of this test is T1, mouse LY6A (mouse, UniProt P05533 27-112).
T1 construct: whole, on cells
T1 sequence: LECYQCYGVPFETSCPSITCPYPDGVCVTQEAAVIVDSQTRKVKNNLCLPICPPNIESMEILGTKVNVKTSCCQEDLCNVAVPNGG
The test can be described thus: AAV binding to LY6A-transfected HEK293T cells on ice, bound viral genomes counted by qPCR. A general note: In qPCR the cycle at which signal appears reflects the starting amount.

B1: AAV.CPP.16 (other)
chain: MAADGYLPDWLEDNLSEGIREWWALKPGAPQPKANQQHQDNARGLVLPGYKYLGPGNGLDKGEPVNAADAAALEHDKAYDQQLKAGDNPYLKYNHADAEFQERLKEDTSFGGNLGRAVFQAKKRLLEPLGLVEEAAKTAPGKKRPVEQSPQEPDSSAGIGKSGAQPAKKRLNFGQTGDTESVPDPQPIGEPPAAPSGVGSLTMASGGGAPVADNNEGADGVGSSSGNWHCDSQWLGDRVITTSTRTWALPTYNNHLYKQISNSTSGGSSNDNAYFGYSTPWGYFDFNRFHCHFSPRDWQRLINNNWGFRPKRLNFKLFNIQVKEVTDNNGVKTIANNLTSTVQVFTDSDYQLPYVLGSAHEGCLPPFPADVFMIPQYGYLTLNDGSQAVGRSSFYCLEYFPSQMLRTGNNFQFSYEFENVPFHSSYAHSQSLDRLMNPLIDQYLYYLSKTINGSGQNQQTLKFSVAGPSNMAVQGRNYIPGPSYRQQRVSTTVTQNNNSEFAWPGASSWALNGRNSLMNPGPAMASHKEGEDRFFPLSGSLIFGKQGTGRDNVDADKVMITNEEEIKTTNPVATESYGQVATNHQSAQTVSALKAQAQTGWVQNQGILPGMVWQDRDVYLQGPIWAKIPHTDGNFHPSPLMGGFGMKHPPPQILIKNTPVPADPPTAFNKDKLNSFITQYSTGQVSVEIEWELQKENSKRWNPEIQYTSNYYKSNNVEFAVNTEGVYSEPRPIGTRYLTRNL
notes: Whole recombinant AAV particle in the assay; also called Bip2.1 insert TVSALK
With B1, the binding result is on record as “no binding (tested: MOI of 10000)”.

B2: AAV.CPP.21 (other)
chain: MAADGYLPDWLEDNLSEGIREWWALKPGAPQPKANQQHQDNARGLVLPGYKYLGPGNGLDKGEPVNAADAAALEHDKAYDQQLKAGDNPYLKYNHADAEFQERLKEDTSFGGNLGRAVFQAKKRLLEPLGLVEEAAKTAPGKKRPVEQSPQEPDSSAGIGKSGAQPAKKRLNFGQTGDTESVPDPQPIGEPPAAPSGVGSLTMASGGGAPVADNNEGADGVGSSSGNWHCDSQWLGDRVITTSTRTWALPTYNNHLYKQISNSTSGGSSNDNAYFGYSTPWGYFDFNRFHCHFSPRDWQRLINNNWGFRPKRLNFKLFNIQVKEVTDNNGVKTIANNLTSTVQVFTDSDYQLPYVLGSAHEGCLPPFPADVFMIPQYGYLTLNDGSQAVGRSSFYCLEYFPSQMLRTGNNFQFSYEFENVPFHSSYAHSQSLDRLMNPLIDQYLYYLSKTINGSGQNQQTLKFSVAGPSNMAVQGRNYIPGPSYRQQRVSTTVTQNNNSEFAWPGASSWALNGRNSLMNPGPAMASHKEGEDRFFPLSGSLIFGKQGTGRDNVDADKVMITNEEEIKTTNPVATESYGQVATNHQSAQTVSALFKAQAQTGWVQNQGILPGMVWQDRDVYLQGPIWAKIPHTDGNFHPSPLMGGFGMKHPPPQILIKNTPVPADPPTAFNKDKLNSFITQYSTGQVSVEIEWELQKENSKRWNPEIQYTSNYYKSNNVEFAVNTEGVYSEPRPIGTRYLTRNL
notes: Whole recombinant AAV particle in the assay; also called Bip2.6 insert TVSALFK
On to B2, for which the binding result is “no binding (tested: MOI of 10000)”.
